As a reminder, the EC50 is the concentration at which the effect is half-maximal. As a reminder, the Kd is a measure of binding affinity in units of concentration. By koff is commonly meant the first-order rate constant of dissociation. Read a low koff as slow dissociation. As usually defined, the kon is a measure of how fast the partners come together. A higher kon goes with faster complex formation.

The source of these data is patent US20250002610A1 (Genmab, published 2025).

Experiment [1] concerns the target human DR4 with death domain deletion on ExpiCHO-S cells (human). Description: flow cytometry, ExpiCHO-S cells expressing human DR4, n = 2. The protocol:
Binding of BisG1-FAPα-FERL/DR4-FERR, BisG1-DR4-FEAL/b12-FEAR and IgG1-DR4-FERR to DR4 of various species commonly used for nonclinical toxicology studies was assessed by flow cytometry using ExpiCHO-S cells transiently expressing DR4 from different animal species. In contrast to other species, rodents only express one DR which has highest homology with human DR5. Therefore, ExpiCHO-S cells transiently expressing rat and mouse DR protein were used instead. All DR constructs lack the intracellular DD to avoid apoptosis of transfected cells upon DR(4) activation. IgG1-b12 was used as negative control.
In general terms: In flow cytometry, cells or beads pass a laser one at a time.

For experiment [2], the target named is T1, cynomolgus DR4MfECD-FcHisCtag (cynomolgus monkey).
T1 construct: also called recombinant cynomolgus monkey DR4
T1 chain: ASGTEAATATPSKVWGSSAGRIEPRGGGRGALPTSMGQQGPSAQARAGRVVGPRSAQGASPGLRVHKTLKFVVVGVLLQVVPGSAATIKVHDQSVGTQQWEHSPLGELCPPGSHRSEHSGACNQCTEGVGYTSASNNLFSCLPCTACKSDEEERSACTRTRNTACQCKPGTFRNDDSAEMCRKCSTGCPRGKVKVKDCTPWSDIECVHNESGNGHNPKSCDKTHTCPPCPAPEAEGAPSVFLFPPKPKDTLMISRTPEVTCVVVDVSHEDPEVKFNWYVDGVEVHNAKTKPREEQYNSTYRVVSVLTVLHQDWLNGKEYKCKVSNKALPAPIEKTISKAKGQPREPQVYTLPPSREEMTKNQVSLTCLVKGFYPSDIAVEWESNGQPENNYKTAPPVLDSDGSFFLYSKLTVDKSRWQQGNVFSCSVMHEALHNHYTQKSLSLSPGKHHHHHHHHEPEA
Description: BLI (Octet), antigen captured on anti-Penta-HIS sensors, average of three experiments. The protocol: Experiments were carried out while shaking at 1,000 RPM at 30° C. Amine Reactive 2nd Generation (AR2G) biosensors (Sartorius, Cat #18-5092) were activated by reaction with 20 mM EDC (N-(3-Dimethylaminopropyl)-N′-ethylcarbodiimide hydrochloride) (Sigma-Aldrich, Cat #03449) and 10 mM s-NHS (N-hydroxysulfosuccinimide sodium salt) (Sigma-Aldrich, Cat #56485) for 300 s. The activated AR2G sensors were loaded with 2.5 μg/mL His-tagged recombinant Human FAPα (Acro Biosystems, Cat #FAP-H5244-100ug) in 10 mM Sodium Acetate pH 5.0 (Sartorius, Cat #18-1069) or 2.5 μg/mL His-tagged recombinant Cynomolgus FAPα (Acro Biosystems, Cat #FAP-C52H3-100ug) in 10 mM Sodium Acetate pH 5.0 for 600 s and quenched with 1 M ethanolamine pH 8.5 (Sartorius Cat #18-1071) for 300 s. After a baseline measurement in Sample Diluent (1000 s; Sartorius, Cat #18-1104), the association (100 s) and dissociation (4,000 s) of functionally monovalent antibody was determined using a concentration range of 0.78-800 nM with two-fold dilution steps in Sample Diluent. The molecular mass of the antibodies used for the calculations was calculated from the sequences.
The binding affinity of BisG1-FAPα-FERL/DR4-FERR, BisG1-b12-FERL/DR4-FERR and control BisG1-FAPα-FERL/b12-FERR to recombinant human and cynomolgus monkey DR4 protein was determined using label-free biolayer interferometry on an Octet HTX instrument (Sartorius).
The protocol detailed in Example 5 was used with the following differences: anti-Penta-HIS biosensors (Sartorius, Cat #18-5120) were used; the sensors were preconditioned by exposure to 10 mM glycine (Sigma-Aldrich, Cat #15527) buffer pH 1.5 for 5 s, followed by neutralization in Sample Diluent (Sartorius, Cat #18-1104) for 5 s; both steps were repeated 2 times; the sensors were loaded with 50 nM human DR4HsECD-FcHisCtag (SEQ ID NO: 66), or cynomolgus DR4MfECD-FcHisCtag (SEQ ID NO: 67), for 600 s; the dissociation time was 1,000 s; The window of interest for the dissociation time was set at 100 s for the cynomolgus antigen and at 1,000 s for the human antigen.
(In BLI a coated tip is dipped into the sample, and binding shifts an interference pattern.)

B1: BisG1-FAPα-FERL/DR4-FERR (bispecific antibody, human IgG1, kappa, lambda)
heavy 1: EVQLLESGGGLVQPGGSPRLSCEASGFTFSSYALSWVRQAPGKGLEWVSAISGSGGGRYYADSVKGRFTISRDNSKNTLFLQMNSLRAEDTAVYYCAKEGYSSSGTYWDHWGQGTLVTVSSASTKGPSVFPLAPSSKSTSGGTAALGCLVKDYFPEPVTVSWNSGALTSGVHTFPAVLQSSGLYSLSSVVTVPSSSLGTQTYICNVNHKPSNTKVDKRVEPKSCDKTHTCPPCPAPEFERGPSVFLFPPKPKDTLMISRTPEVTCVVVDVSHEDPEVKFNWYVDGVEVHNAKTKPREEQYNSTYRVVSVLTVLHQDWLNGKEYKCKVSNKALPAPIEKTISKAKGQPREPQVYTLPPSREEMTKNQVSLTCLVKGFYPSDIAVEWESNGQPENNYKTTPPVLDSDGSFLLYSKLTVDKSRWQQGNVFSCSVMHEALHNHYTQKSLSLSPG
light 1: AIQMTQSPSSVSASVGDRVTITCRASQGVSSWLAWYQQKPGRAPKLLIYVASTLQSGVPSRFSGSGSGTDFTLTINSLQPEDFATYYCQQANSFPPTFGQGTRLEMKRTVAAPSVFIFPPSDEQLKSGTASVVCLLNNFYPREAKVQWKVDNALQSGNSQESVTEQDSKDSTYSLSSTLTLSKADYEKHKVYACEVTHQGLSSPVTKSFNRGEC
heavy 2: QVQLQESGPGLVKPSGTLSLTCAVSGGSISSYSWWSWIRQPPGKGLEWIGELYHSGSTNYNPSLKSRVTISVDKSKNQFSLKLRSVTAADTAVYYCVRGVATIDYWGQGTLVTVSSASTKGPSVFPLAPSSKSTSGGTAALGCLVKDYFPEPVTVSWNSGALTSGVHTFPAVLQSSGLYSLSSVVTVPSSSLGTQTYICNVNHKPSNTKVDKRVEPKSCDKTHTCPPCPAPEFERGPSVFLFPPKPKDTLMISRTPEVTCVVVDVSHEDPEVKFNWYVDGVEVHNAKTKPREEQYNSTYRVVSVLTVLHQDWLNGKEYKCKVSNKALPAPIEKTISKAKGQPREPQVYTLPPSREEMTKNQVSLTCLVKGFYPSDIAVEWESNGQPENNYKTTPPVLDSDGSFFLYSRLTVDKSRWQQGNVFSCSVMHEALHNHYTQKSLSLSPG
light 2: QSALTQPPSASGSPGQSVTISCTGTSSDVGGYNFVSWYQQDPGKAPKLLIYEVTKRPSGVPDRFSGSKSGNTASLTVSGLQAEDEADYYCSSYAGSNNVMFGGGTKLTVLGQPKAAPSVTLFPPSSEELQANKATLVCLISDFYPGAVTVAWKADSSPVKAGVETTTPSKQSNNKYAASSYLSLTPEQWKSHRSYSCQVTHEGSTVEKTVAPTECS
notes: Human IgG1 bispecific made by controlled Fab-arm exchange of IgG1-FAPα-FERL and IgG1-DR4-FERR; monovalent for FAPα and for DR4; also called GEN1057
In experiment [1], B1 gave an EC50 of 0.38 µg/mL. For the same molecule, in experiment [2], the Kd is 290 nM, the koff was 0.008 s⁻¹ and the kon is 28000 M⁻¹ s⁻¹.

B2: BisG1-b12-FERL/DR4-FERR (bispecific antibody, human IgG1, kappa, lambda)
heavy 1: QVQLVQSGAEVKKPGASVKVSCQASGYRFSNFVIHWVRQAPGQRFEWMGWINPYNGNKEFSAKFQDRVTFTADTSANTAYMELRSLRSADTAVYYCARVGPYSWDDSPQDNYYMDVWGKGTTVIVSSASTKGPSVFPLAPSSKSTSGGTAALGCLVKDYFPEPVTVSWNSGALTSGVHTFPAVLQSSGLYSLSSVVTVPSSSLGTQTYICNVNHKPSNTKVDKRVEPKSCDKTHTCPPCPAPEFERGPSVFLFPPKPKDTLMISRTPEVTCVVVDVSHEDPEVKFNWYVDGVEVHNAKTKPREEQYNSTYRVVSVLTVLHQDWLNGKEYKCKVSNKALPAPIEKTISKAKGQPREPQVYTLPPSREEMTKNQVSLTCLVKGFYPSDIAVEWESNGQPENNYKTTPPVLDSDGSFLLYSKLTVDKSRWQQGNVFSCSVMHEALHNHYTQKSLSLSPG
light 1: EIVLTQSPGTLSLSPGERATFSCRSSHSIRSRRVAWYQHKPGQAPRLVIHGVSNRASGISDRFSGSGSGTDFTLTITRVEPEDFALYYCQVYGASSYTFGQGTKLERKRTVAAPSVFIFPPSDEQLKSGTASVVCLLNNFYPREAKVQWKVDNALQSGNSQESVTEQDSKDSTYSLSSTLTLSKADYEKHKVYACEVTHQGLSSPVTKSFNRGEC
heavy 2: B1 heavy 2
light 2: B1 light 2
notes: Fab-arm exchange of IgG1-b12-FERL and IgG1-DR4-FERR; also called bsIgG1-ctrl-FERLxDR4-FERR
In experiment [2], B2 had a Kd of 260 nM, a koff of 0.0082 s⁻¹ and a kon of 31000 M⁻¹ s⁻¹.

B3: IgG1-DR4-FERR (antibody, V domains shown)
VH: QVQLQESGPGLVKPSGTLSLTCAVSGGSISSYSWWSWIRQPPGKGLEWIGELYHSGSTNYNPSLKSRVTISVDKSKNQFSLKLRSVTAADTAVYYCVRGVATIDYWGQGTLVTVSS
VL: QSALTQPPSASGSPGQSVTISCTGTSSDVGGYNFVSWYQQDPGKAPKLLIYEVTKRPSGVPDRFSGSKSGNTASLTVSGLQAEDEADYYCSSYAGSNNVMFGGGTKLTVLG
notes: Bivalent monoclonal IgG1 lambda
Regarding B3, in experiment [1], the EC50 was 0.06 µg/mL.
